Measurements published in PMC3003441 (Nature cell biology, 2010).

Target: N-terminally flag-tagged Ubr1 (^fUbr1), full length (S. cerevisiae, UniProt P19812 1-1950)
Experiment: co-IP

Chain of N-terminally flag-tagged Ubr1 (^fUbr1), full length (P19812 whole entry): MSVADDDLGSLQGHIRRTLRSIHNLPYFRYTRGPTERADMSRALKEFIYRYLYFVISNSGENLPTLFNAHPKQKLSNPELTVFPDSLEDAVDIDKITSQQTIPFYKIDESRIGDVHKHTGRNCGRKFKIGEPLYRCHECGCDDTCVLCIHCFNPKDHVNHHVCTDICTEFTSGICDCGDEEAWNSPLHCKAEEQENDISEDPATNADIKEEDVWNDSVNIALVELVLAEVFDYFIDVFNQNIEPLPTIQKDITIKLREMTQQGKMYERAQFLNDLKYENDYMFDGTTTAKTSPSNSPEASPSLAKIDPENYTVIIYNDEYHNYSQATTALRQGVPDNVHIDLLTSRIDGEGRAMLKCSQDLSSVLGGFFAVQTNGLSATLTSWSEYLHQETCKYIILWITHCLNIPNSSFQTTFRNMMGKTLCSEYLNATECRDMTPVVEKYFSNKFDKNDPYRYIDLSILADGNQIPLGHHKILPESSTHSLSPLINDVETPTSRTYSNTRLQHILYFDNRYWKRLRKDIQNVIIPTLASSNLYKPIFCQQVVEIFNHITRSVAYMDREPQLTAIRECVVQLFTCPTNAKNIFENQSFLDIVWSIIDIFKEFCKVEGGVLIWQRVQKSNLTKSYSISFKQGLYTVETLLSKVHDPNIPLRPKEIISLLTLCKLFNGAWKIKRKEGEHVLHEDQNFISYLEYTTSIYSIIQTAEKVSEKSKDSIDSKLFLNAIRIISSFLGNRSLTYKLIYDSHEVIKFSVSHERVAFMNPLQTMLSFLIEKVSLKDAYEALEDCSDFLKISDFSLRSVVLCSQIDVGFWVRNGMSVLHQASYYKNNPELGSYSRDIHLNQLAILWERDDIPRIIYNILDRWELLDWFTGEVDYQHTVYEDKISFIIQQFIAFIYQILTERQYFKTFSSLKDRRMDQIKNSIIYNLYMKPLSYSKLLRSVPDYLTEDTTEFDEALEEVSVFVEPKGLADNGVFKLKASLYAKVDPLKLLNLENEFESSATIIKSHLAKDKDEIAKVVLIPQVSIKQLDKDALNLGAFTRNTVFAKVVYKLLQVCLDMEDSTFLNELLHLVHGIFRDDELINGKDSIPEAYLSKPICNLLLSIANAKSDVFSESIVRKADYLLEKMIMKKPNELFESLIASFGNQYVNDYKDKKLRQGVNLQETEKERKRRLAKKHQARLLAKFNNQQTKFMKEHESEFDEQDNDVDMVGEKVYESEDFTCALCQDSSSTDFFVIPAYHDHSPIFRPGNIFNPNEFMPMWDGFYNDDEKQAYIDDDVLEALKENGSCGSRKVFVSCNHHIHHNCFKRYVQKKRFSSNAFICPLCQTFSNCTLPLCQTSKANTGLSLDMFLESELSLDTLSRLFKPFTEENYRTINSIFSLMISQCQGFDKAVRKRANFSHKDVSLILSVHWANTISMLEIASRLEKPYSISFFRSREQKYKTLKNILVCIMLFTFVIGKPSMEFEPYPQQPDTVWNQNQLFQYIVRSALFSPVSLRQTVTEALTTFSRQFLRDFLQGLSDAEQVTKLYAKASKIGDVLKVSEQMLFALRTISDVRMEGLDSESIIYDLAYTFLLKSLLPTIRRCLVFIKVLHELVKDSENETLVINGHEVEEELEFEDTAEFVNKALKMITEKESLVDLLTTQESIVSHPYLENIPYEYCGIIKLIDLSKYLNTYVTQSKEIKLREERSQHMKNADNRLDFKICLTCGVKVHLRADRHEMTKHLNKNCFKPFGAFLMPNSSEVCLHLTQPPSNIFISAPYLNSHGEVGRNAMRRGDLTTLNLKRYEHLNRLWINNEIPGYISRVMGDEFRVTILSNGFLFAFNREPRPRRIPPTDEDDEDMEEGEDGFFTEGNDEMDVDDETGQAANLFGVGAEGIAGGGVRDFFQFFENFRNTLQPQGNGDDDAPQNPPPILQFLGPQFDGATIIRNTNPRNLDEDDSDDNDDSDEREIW

B1: flag-tagged Ufd4 (^fUfd4), purified (enzyme, S. cerevisiae, UniProt P33202 1-1483, looked up)
chain: MSENNSHNLDEHESHSENSDYMMDTQVEDDYDEDGHVQGEYSYYPDEDEDEHMLSSVGSFEADDGEDDDNDYHHEDDSGLLYGYHRTQNGSDEDRNEEEDGLERSHDNNEFGSNPLHLPDILETFAQRLEQRRQTSEGLGQHPVGRTLPEILSMIGGRMERSAESSARNERISKLIENTGNASEDPYIAMESLKELSENILMMNQMVVDRIIPMETLIGNIAAILSDKILREELELQMQACRCMYNLFEVCPESISIAVDEHVIPILQGKLVEISYIDLAEQVLETVEYISRVHGRDILKTGQLSIYVQFFDFLTIHAQRKAIAIVSNACSSIRTDDFKTIVEVLPTLKPIFSNATDQPILTRLVNAMYGICGALHGVDKFETLFSLDLIERIVQLVSIQDTPLENKLKCLDILTVLAMSSDVLSRELREKTDIVDMATRSFQHYSKSPNAGLHETLIYVPNSLLISISRFIVVLFPPEDERILSADKYTGNSDRGVISNQEKFDSLVQCLIPILVEIYTNAADFDVRRYVLIALLRVVSCINNSTAKAINDQLIKLIGSILAQKETASNANGTYSSEAGTLLVGGLSLLDLICKKFSELFFPSIKREGIFDLVKDLSVDFNNIDLKEDGNENISLSDEEGDLHSSIEECDEGDEEYDYEFTDMEIPDSVKPKKISIHIFRTLSLAYIKNKGVNLVNRVLSQMNVEQEAITEELHQIEGVVSILENPSTPDKTEEDWKGIWSVLKKCIFHEDFDVSGFEFTSTGLASSITKRITSSTVSHFILAKSFLEVFEDCIDRFLEILQSALTRLENFSIVDCGLHDGGGVSSLAKEIKIKLVYDGDASKDNIGTDLSSTIVSVHCIASFTSLNEFLRHRMVRMRFLNSLIPNLTSSSTEADREEEENCLDHMRKKNFDFFYDNEKVDMESTVFGVIFNTFVRRNRDLKTLWDDTHTIKFCKSLEGNNRESEAAEEANEGKKLRDFYKKREFAQVDTGSSADILTLLDFLHSCGVKSDSFINSKLSAKLARQLDEPLVVASGALPDWSLFLTRRFPFLFPFDTRMLFLQCTSFGYGRLIQLWKNKSKGSKDLRNDEALQQLGRITRRKLRISRKTIFATGLKILSKYGSSPDVLEIEYQEEAGTGLGPTLEFYSVVSKYFARKSLNMWRCNSYSYRSEMDVDTTDDYITTLLFPEPLNPFSNNEKVIELFGYLGTFVARSLLDNRILDFRFSKVFFELLHRMSTPNVTTVPSDVETCLLMIELVDPLLAKSLKYIVANKDDNMTLESLSLTFTVPGNDDIELIPGGCNKSLNSSNVEEYIHGVIDQILGKGIEKQLKAFIEGFSKVFSYERMLILFPDELVDIFGRVEEDWSMATLYTNLNAEHGYTMDSSIIHDFISIISAFGKHERRLFLQFLTGSPKLPIGGFKSLNPKFTVVLKHAEDGLTADEYLPSVMTCANYLKLPKYTSKDIMRSRLCQAIEEGAGAFLLS
B1: binds.
